Assay results: article PMC3499988 (Biochemistry, 2011)
Changes are numbered by the printed parent chain. Names may count otherwise.

B1: Fab m18 (wild type) (Fab, V domains shown)
VH: VQLLESGPGVVKPSETLSLTCTVSGASVNNYYWTWVRQPPGKGLEWIGNVYDSGDTNYNPSLSSRLSLSMDTSKNQFSLRLSSVTAADTATYYCARYHRHFIRGPLSFDYWGRGTLVTVSS
VL: LQMTQSPSFLSASVGDRVSITCRASQDIQKFLAWYQLTPGDAPKLLMYSASTLQSGVPSRFSGSGSGTEFTLTISGLQPEDFATYYCQHLKRYPYTFGQGTKLEIS
B2: Fab m18 Q30A (LCDR1) (Fab, V domains shown)
VH: B1 VH
VL: B1 VL with Q29A
B3: Fab m18 Y33F (HCDR1) (Fab, V domains shown)
VH: B1 VH with Y32F
VL: B1 VL
B4: Fab m18 Y102A (HCDR3) (Fab, V domains shown)
VH: B1 VH with Y110A
VL: B1 VL
B5: Fab m18 P61A (HCDR2) (Fab, V domains shown)
VH: B1 VH with P60A
VL: B1 VL
B6: Fab m18 S62A (HCDR2) (Fab, V domains shown)
VH: B1 VH with S61A
VL: B1 VL
B7: Fab m18 P95A (LCDR3) (Fab, V domains shown)
VH: B1 VH
VL: B1 VL with P94A
B8: Fab m18 H96A (HCDR3) (Fab, V domains shown)
VH: B1 VH with H98A
VL: B1 VL
B9: Fab m18 D53A (HCDR2) (Fab, V domains shown)
VH: B1 VH with D52A
VL: B1 VL
B10: Fab m18 T53A (LCDR2) (Fab, V domains shown)
VH: B1 VH
VL: B1 VL with T52A
B11: Fab m18 T57A (HCDR2) (Fab, V domains shown)
VH: B1 VH with T56A
VL: B1 VL
B12: Fab m18 S56A (LCDR2) (Fab, V domains shown)
VH: B1 VH
VL: B1 VL with S55A
B13: Fab m18 N30A (HCDR1) (Fab, V domains shown)
VH: B1 VH with N29A
VL: B1 VL
B14: Fab m18 K31R (LCDR1) (Fab, V domains shown)
VH: B1 VH
VL: B1 VL with K30R
B15: Fab m18 R24A (LCDR1) (Fab, V domains shown)
VH: B1 VH
VL: B1 VL with R23A
B16: Fab m18 S65A (HCDR2) (Fab, V domains shown)
VH: B1 VH with S64A
VL: B1 VL
B17: Fab m18 D56A (HCDR2) (Fab, V domains shown)
VH: B1 VH with D55A
VL: B1 VL
B18: Fab m18 S64A (HCDR2) (Fab, V domains shown)
VH: B1 VH with S63A
VL: B1 VL
B19: Fab m18 Y33A (HCDR1) (Fab, V domains shown)
VH: B1 VH with Y32A
VL: B1 VL
B20: Fab m18 Q27A (LCDR1) (Fab, V domains shown)
VH: B1 VH
VL: B1 VL with Q26A
B21: Fab m18 S54A (HCDR2) (Fab, V domains shown)
VH: B1 VH with S53A
VL: B1 VL
B22: Fab m18 R93A (LCDR3) (Fab, V domains shown)
VH: B1 VH
VL: B1 VL with R92A
B23: Fab m18 D28A (LCDR1) (Fab, V domains shown)
VH: B1 VH
VL: B1 VL with D27A
B24: Fab m18 R100aA (HCDR3) (Fab, V domains shown)
VH: B1 VH with R103A
VL: B1 VL
B25: Fab m18 Y32A (HCDR1) (Fab, V domains shown)
VH: B1 VH with Y31A
VL: B1 VL
B26: Fab m18 N31A (HCDR1) (Fab, V domains shown)
VH: B1 VH with N30A
VL: B1 VL
B27: Fab m18 R100aE (HCDR3) (Fab, V domains shown)
VH: B1 VH with R103E
VL: B1 VL

biological target: T1, HIV-1 HXBc2 gp120 (HIV-1 (HXBc2), UniProt P04578); assay: SPR

Binder	Kd	koff	kon
B1	4.3 nM	0.00022 ± 0.9 s⁻¹	52000 ± 2.2 M⁻¹ s⁻¹

biological target: T2, HIV-1 YU-2 gp120 (HIV-1 (YU-2), UniProt P35961); assay: SPR

Binder	Kd	koff	kon
B1	1.4 nM	9.8e-05 s⁻¹	69000 ± 0.3 M⁻¹ s⁻¹
B2	1.4 nM	0.00012 ± 0.1 s⁻¹	91000 ± 0.1 M⁻¹ s⁻¹
B3	56.3 nM	0.0024 ± 0.8 s⁻¹	42000 ± 1.9 M⁻¹ s⁻¹
B4	31.5 nM	0.0012 ± 0.4 s⁻¹	37000 ± 1.4 M⁻¹ s⁻¹
B5	19.3 nM	0.00063 ± 1 s⁻¹	33000 ± 1 M⁻¹ s⁻¹
B6	44.2 nM	0.0016 ± 0.4 s⁻¹	35000 ± 0.9 M⁻¹ s⁻¹
B7	35.5 nM	0.0019 ± 0.3 s⁻¹	53000 ± 1.6 M⁻¹ s⁻¹
B8	11.7 nM	0.0011 ± 0.6 s⁻¹	93000 ± 2.9 M⁻¹ s⁻¹
B9	7 nM	0.00012 ± 1.1 s⁻¹	16000 ± 1.3 M⁻¹ s⁻¹
B10	35.2 nM	0.00071 ± 7 s⁻¹	20000 ± 2.1 M⁻¹ s⁻¹
B11	2.5 nM	0.00021 ± 0.4 s⁻¹	84000 ± 2 M⁻¹ s⁻¹
B12	25.7 nM	0.00066 ± 1.4 s⁻¹	28000 ± 0.7 M⁻¹ s⁻¹
B13	40.9 nM	0.0017 ± 0.3 s⁻¹	40000 ± 0.4 M⁻¹ s⁻¹
B14	34.7 nM	0.0011 ± 0.2 s⁻¹	31000 ± 1.2 M⁻¹ s⁻¹
B15	16.8 nM	0.00039 ± 3.7 s⁻¹	23000 ± 0.9 M⁻¹ s⁻¹
B16	39.1 nM	0.0014 ± 0.2 s⁻¹	36000 ± 1.2 M⁻¹ s⁻¹
B17	26.2 nM	0.00061 ± 4.5 s⁻¹	25000 ± 0.6 M⁻¹ s⁻¹
B18	40 nM	0.00086 ± 5.9 s⁻¹	21000 ± 0.7 M⁻¹ s⁻¹
B19	30.7 nM	0.0038 ± 0.2 s⁻¹	120000 ± 0.5 M⁻¹ s⁻¹
B20	6.7 nM	0.00049 ± 3.9 s⁻¹	72000 ± 2.9 M⁻¹ s⁻¹
B21	56.4 nM	0.0022 ± 0.7 s⁻¹	39000 ± 0.5 M⁻¹ s⁻¹
B22	2 nM	8e-05 s⁻¹	39000 ± 0.2 M⁻¹ s⁻¹
B23	0.7 nM	1.9e-05 s⁻¹	28000 ± 3.1 M⁻¹ s⁻¹
B24	2.3 nM	7.6e-05 s⁻¹	34000 ± 0.9 M⁻¹ s⁻¹
B25	0.4 nM	6.1e-05 s⁻¹	120000 ± 0.2 M⁻¹ s⁻¹
B26	25.9 nM	0.0013 ± 0.5 s⁻¹	51000 ± 1 M⁻¹ s⁻¹
B27	69.2 nM	0.0011 ± 0.7 s⁻¹	16000 ± 0.6 M⁻¹ s⁻¹

biological target: T1, HIV-1 HXBc2 gp120; assay: SPR; remark: another data set of the same source

Binder	IC50
B1	56.9 ± 13 nM

biological target: T2, HIV-1 YU-2 gp120; assay: SPR; remark: another data set of the same source

Binder	IC50
B1	33 ± 3.6 nM
B2	80.3 ± 16.7 nM
B3	> 1000 nM
B4	> 1000 nM
B5	> 1000 nM
B6	> 1000 nM
B7	> 1000 nM
B8	> 500 nM
B9	> 500 nM
B10	> 500 nM
B11	16.8 ± 3.8 nM
B12	> 500 nM
B13	> 1000 nM
B14	> 1000 nM
B15	> 1000 nM
B16	> 1000 nM
B17	> 1000 nM
B18	> 1000 nM
B19	135 ± 7.1 nM
B20	49.6 ± 3.1 nM
B21	> 1000 nM
B22	49.5 ± 20.5 nM
B23	65.5 ± 0.5 nM
B24	> 500 nM
B25	247 ± 15.8 nM
B26	> 1000 nM
B27	> 1000 nM

biological target: T2, HIV-1 YU-2 gp120; assay: SPR; remark: another data set of the same source

Binder	IC50
B1	36 ± 1.2 nM
B2	129 ± 5 nM
B3	> 1000 nM
B4	> 1000 nM
B5	> 1000 nM
B6	> 1000 nM
B7	> 1000 nM
B8	> 500 nM
B9	> 500 nM
B10	> 500 nM
B11	33.1 ± 8 nM
B12	> 500 nM
B13	> 1000 nM
B14	> 1000 nM
B15	> 1000 nM
B16	> 1000 nM
B17	> 1000 nM
B18	> 1000 nM
B19	150 ± 3.5 nM
B20	54.5 ± 3.5 nM
B21	> 1000 nM
B22	78.7 ± 3.2 nM
B23	70.8 ± 1.8 nM
B24	> 500 nM
B25	432 ± 31.5 nM
B26	> 1000 nM
B27	> 1000 nM

biological target: T1, HIV-1 HXBc2 gp120; assay: SPR; remark: another data set of the same source

Binder	IC50
B1	36.1 ± 12.9 nM
